Biological target: prostate specific membrane antigen (PSMA) (human) (UniProt Q04609)
Assay: FACS on LNCaP (PSMA+) cells; negative control, background signal

prostate specific membrane antigen (PSMA) (human), sequence (Q04609 whole entry): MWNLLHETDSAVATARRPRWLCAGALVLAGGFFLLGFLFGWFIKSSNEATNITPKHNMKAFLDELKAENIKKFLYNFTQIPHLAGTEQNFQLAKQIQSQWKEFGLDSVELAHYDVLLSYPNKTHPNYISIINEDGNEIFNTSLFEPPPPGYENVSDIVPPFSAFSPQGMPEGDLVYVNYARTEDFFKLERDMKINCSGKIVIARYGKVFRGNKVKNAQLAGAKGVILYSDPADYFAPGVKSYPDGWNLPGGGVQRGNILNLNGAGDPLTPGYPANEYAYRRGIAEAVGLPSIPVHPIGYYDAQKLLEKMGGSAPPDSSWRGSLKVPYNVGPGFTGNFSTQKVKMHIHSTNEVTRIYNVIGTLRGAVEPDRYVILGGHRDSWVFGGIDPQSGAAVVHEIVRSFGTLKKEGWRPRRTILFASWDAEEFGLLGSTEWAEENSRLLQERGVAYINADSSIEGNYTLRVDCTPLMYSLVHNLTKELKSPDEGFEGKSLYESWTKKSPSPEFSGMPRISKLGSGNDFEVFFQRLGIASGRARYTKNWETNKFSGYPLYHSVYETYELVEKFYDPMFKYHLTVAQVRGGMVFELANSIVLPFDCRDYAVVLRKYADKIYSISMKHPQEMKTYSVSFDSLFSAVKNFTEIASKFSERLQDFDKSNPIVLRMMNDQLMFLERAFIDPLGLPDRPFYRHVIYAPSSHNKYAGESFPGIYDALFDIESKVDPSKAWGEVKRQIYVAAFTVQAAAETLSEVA

With avidin-FITC the MFI was 161 MFI.
